Measured values: patent US20220042033A1, “COMPOSITION AND METHOD FOR CONFERRING AND/OR ENHANCING TOLERANCE AGAINST HERBICIDES BY USING VARIANTS OF PPO” (FarmHannong Co., Ltd., priority 2017, published 2022)
Changes are numbered by the printed parent chain. In names and notes the source's numbering stands.

B1: I168C + M365V: MxPPO (SEQ ID NO: 3) variant (protein)
chain: MHHMPRTTGMNVAVVGGGISGLAVAHHLRSRGTDAVLLESSARLGGAVGTHALAGYLVEQGPNSFLDREPATRALAAALNLEGRIRAADPAAKRRYVYTRGRLRSVPASPPAFLASDILPLGARLRVAGELFSRRAPEGVDESLAAFGRRHLGHRATQVLLDAVQTGCYAGDVEQLSVAATFPMLVKMEREHRSLILGAIRAQKAQRQAALPAGTAPKLSGALSTFDGGLQVLIDALAASLGDAAHVGARVEGLAREDGGWRLIIEEHGRRAELSVAQVVLAAPAHATAKLLRPLDDALAALVAGIAYAPIAVVHLGFDAGTLPAPDGFGFLVPAEEQRRMLGAIHASTTFPFRAEGGRVLYSCVVGGARQPGLVEQDEDALAALAREELKALAGVTARPSFTRVFRWPLGIPQYNLGHLERVAAIDAALQRLPGLHLIGNAYKGVGLNDCIRNAAQLADALVAGNTSHAP
modifications: Synthetic (Protoporphyrinogen IX oxidase (MxPPO) of Myxococcus xanthus)
B2: I168C + A170C + L332T + M365V: MxPPO (SEQ ID NO: 3) variant (protein)
chain: B1 chain with A170C, L332T
modifications: Synthetic (Protoporphyrinogen IX oxidase (MxPPO) of Myxococcus xanthus)
B3: R95A + I168C + I311M + M365V: MxPPO (SEQ ID NO: 3) variant (protein)
chain: B1 chain with R95A, I311M
modifications: Synthetic (Protoporphyrinogen IX oxidase (MxPPO) of Myxococcus xanthus)
B4: R95A + I168C + L332T + M365I: MxPPO (SEQ ID NO: 3) variant (protein)
chain: B1 chain with R95A, L332T, V365I
modifications: Synthetic (Protoporphyrinogen IX oxidase (MxPPO) of Myxococcus xanthus)
B5: A170C + I311M + L332T + M365I: MxPPO (SEQ ID NO: 3) variant (protein)
chain: B1 chain with C168I, A170C, I311M, L332T, V365I
modifications: Synthetic (Protoporphyrinogen IX oxidase (MxPPO) of Myxococcus xanthus)
B6: R95A + I168C + I311M + L332T + M365V: MxPPO (SEQ ID NO: 3) variant (protein)
chain: B1 chain with R95A, I311M, L332T
modifications: Synthetic (Protoporphyrinogen IX oxidase (MxPPO) of Myxococcus xanthus)
B7: R95A + I168C + A170C + I311M + L332T + M365V: MxPPO (SEQ ID NO: 3) variant (protein)
chain: B1 chain with R95A, A170C, I311M, L332T
modifications: Synthetic (Protoporphyrinogen IX oxidase (MxPPO) of Myxococcus xanthus)
B8: R95A + A170C + I311M + M365V: MxPPO (SEQ ID NO: 3) variant (protein)
chain: B1 chain with R95A, C168I, A170C, I311M
modifications: Synthetic (Protoporphyrinogen IX oxidase (MxPPO) of Myxococcus xanthus)
B9: I168C + A170C + I311M + L332T + M365V: MxPPO (SEQ ID NO: 3) variant (protein)
chain: B1 chain with A170C, I311M, L332T
modifications: Synthetic (Protoporphyrinogen IX oxidase (MxPPO) of Myxococcus xanthus)
B10: R95A + I168C + A170C + L332T + M365I: MxPPO (SEQ ID NO: 3) variant (protein)
chain: B1 chain with R95A, A170C, L332T, V365I
modifications: Synthetic (Protoporphyrinogen IX oxidase (MxPPO) of Myxococcus xanthus)
B11: I168C + A170C + I311M + M365I: MxPPO (SEQ ID NO: 3) variant (protein)
chain: B1 chain with A170C, I311M, V365I
modifications: Synthetic (Protoporphyrinogen IX oxidase (MxPPO) of Myxococcus xanthus)
B12: R95A + A170C + L332T + M365I: MxPPO (SEQ ID NO: 3) variant (protein)
chain: B1 chain with R95A, C168I, A170C, L332T, V365I
modifications: Synthetic (Protoporphyrinogen IX oxidase (MxPPO) of Myxococcus xanthus)
B13: R95A + I168C + A170C + I311M + M365V: MxPPO (SEQ ID NO: 3) variant (protein)
chain: B1 chain with R95A, A170C, I311M
modifications: Synthetic (Protoporphyrinogen IX oxidase (MxPPO) of Myxococcus xanthus)

What follows are molecules tested on MxPPO (assay: PPO enzyme activity of purified MBP-fused MxPPO wild type and variants). Conditions: PPO enzyme activity of purified MxPPO protein, relative to wild type.
Assay type: biochemical, Myxococcus xanthus
In the case of B1, the “Activity (%)” value is reported as 42%.
For B2, the “Activity (%)” value was 40%.
With B3 the “Activity (%)” value was 37%.
With B4 the “Activity (%)” value was 34%.
B5 was tested, and the “Activity (%)” value was 52%.
B6 was tested, and the “Activity (%)” value was 12%.
With B7 the “Activity (%)” value was 8%.
For B8, the “Activity (%)” value was 31%.
With B9 the “Activity (%)” value was 20%.
B10 was tested, and the “Activity (%)” value was 18%.
For B11, the “Activity (%)” value was 44%.
B12 was tested, and the “Activity (%)” value was 35%.
In the case of B13, the “Activity (%)” value is reported as 17%.

What follows are molecules tested on MxPPO (assay: Herbicide tolerance test of MxPPO wild type and variants in PPO-deficient E. coli BT3(ΔPPO), growth on herbicide-containing LB agar). Conditions: relative to MxPPO WT, dark, up to 1000 μM (FIGS. 21-22).
Assay type: cell-based, Myxococcus xanthus
Method: Then, the extent of tolerance was evaluated.
B2 was tested, and the “Herbicide tolerance, flumioxazin” value was “+ (1-9 fold higher tolerance)”.
For B3, the “Herbicide tolerance, flumioxazin” value was “+ (1-9 fold higher tolerance)”.
In the case of B4, the “Herbicide tolerance, flumioxazin” value is reported as “+ (1-9 fold higher tolerance)”.
With B5 the “Herbicide tolerance, flumioxazin” value was “+ (1-9 fold higher tolerance)”.
B6 was tested, and the “Herbicide tolerance, flumioxazin” value was “+ (1-9 fold higher tolerance)”.
For B7, the “Herbicide tolerance, flumioxazin” value was “+ (1-9 fold higher tolerance)”.
B8 was tested, and the “Herbicide tolerance, flumioxazin” value was “+ (1-9 fold higher tolerance)”.
With B9 the “Herbicide tolerance, flumioxazin” value was “+ (1-9 fold higher tolerance)”.
In the case of B10, the “Herbicide tolerance, flumioxazin” value is reported as “+ (1-9 fold higher tolerance)”.
In the case of B11, the “Herbicide tolerance, flumioxazin” value is reported as “+ (1-9 fold higher tolerance)”.
With B12 the “Herbicide tolerance, flumioxazin” value was “+ (1-9 fold higher tolerance)”.
For B13, the “Herbicide tolerance, flumioxazin” value was “+ (1-9 fold higher tolerance)”.

Same assay, conditions: relative to MxPPO WT, dark, up to 4000 μM (FIGS. 23-24)
In the case of B2, the “Herbicide tolerance, sulfentrazone” value is reported as “++ (10-99 fold higher tolerance)”.
For B3, the “Herbicide tolerance, sulfentrazone” value was “+++ (100-999 fold higher tolerance)”.
In the case of B4, the “Herbicide tolerance, sulfentrazone” value is reported as “++ (10-99 fold higher tolerance)”.
For B6, the “Herbicide tolerance, sulfentrazone” value was “+++ (100-999 fold higher tolerance)”.
B7 was tested, and the “Herbicide tolerance, sulfentrazone” value was “+++ (100-999 fold higher tolerance)”.
In the case of B8, the “Herbicide tolerance, sulfentrazone” value is reported as “+ (1-9 fold higher tolerance)”.
With B9 the “Herbicide tolerance, sulfentrazone” value was “++ (10-99 fold higher tolerance)”.
In the case of B10, the “Herbicide tolerance, sulfentrazone” value is reported as “+++ (100-999 fold higher tolerance)”.
With B11 the “Herbicide tolerance, sulfentrazone” value was “+ (1-9 fold higher tolerance)”.
In the case of B12, the “Herbicide tolerance, sulfentrazone” value is reported as “+++ (100-999 fold higher tolerance)”.
B13 was tested, and the “Herbicide tolerance, sulfentrazone” value was “+++ (100-999 fold higher tolerance)”.

Same assay, conditions: relative to MxPPO WT, light, up to 400 μM (FIGS. 15-17)
In the case of B1, the “Herbicide tolerance, flumioxazin” value is reported as “+ (1-9 fold higher tolerance)”.

Same assay, conditions: relative to MxPPO WT, light, up to 1000 μM (FIGS. 18-20)
B1 was tested, and the “Herbicide tolerance, sulfentrazone” value was “+ (1-9 fold higher tolerance)”.
